Reference: publication PMC4431184, “The Use of the LanthaScreen TR-FRET CAR Coactivator Assay in the Characterization of Constitutive Androstane Receptor (CAR) Inverse Agonists” (Sensors (Basel, Switzerland), 2015)
Ends that are not written are not given here.

Biological target: T1, glutathione-S-transferase (GST) tagged human CAR ligand-binding domain (LBD) (human)
T1 construct: Component of a bought kit; It was held in the assay by a terbium-labelled anti-GST antibody (a tool only); also called CAR LBD; CAR-LBD
T1 sequence (Q14994 whole entry, looked up): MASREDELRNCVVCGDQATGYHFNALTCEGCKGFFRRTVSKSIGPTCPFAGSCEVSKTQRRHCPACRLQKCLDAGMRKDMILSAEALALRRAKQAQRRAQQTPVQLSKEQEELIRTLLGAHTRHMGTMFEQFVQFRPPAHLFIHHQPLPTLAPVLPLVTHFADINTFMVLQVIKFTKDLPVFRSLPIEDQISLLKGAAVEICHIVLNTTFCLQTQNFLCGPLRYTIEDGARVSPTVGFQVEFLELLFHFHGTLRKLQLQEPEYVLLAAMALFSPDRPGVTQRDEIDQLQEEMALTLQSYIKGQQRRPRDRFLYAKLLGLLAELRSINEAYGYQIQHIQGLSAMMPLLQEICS
Assay: FRET or BRET; LanthaScreen TR-FRET as a1, with the agonist CITCO 10 uM; three orders of adding the reagents (Figure 2A, 2B, 2C standard)
Conditions: both partners purified

## EAEEPSLLKKLLLAPANTQ (also: fluorescein label, position not given here) [fluorescein-labeled PGC1α coactivator peptide]
  fold of TR-FRET ratio with CITCO 10 uM over vehicle control (order: CAR LBD, peptide and antibody, CITCO): 1.94 fold
  fold of TR-FRET ratio with CITCO 10 uM over vehicle control (order: CITCO, peptide and antibody, CAR LBD): 2.26 fold
  fold of TR-FRET ratio with CITCO 10 uM over vehicle control (standard order): 2.56 fold
